Test results as given in patent US20260125649A1, “MEDIUM COMPOSITION AND METHOD FOR CULTURING MESENCHYMAL STEM CELLS” (ACADEMIA SINICA, priority 2018, published 2026).
“And” between values parts separate entries of the source, which are not always exact repeats. Identical values can stand only once. “Also recorded” adds a separate entry of the source.

Experiments:
[1] = system: human bone marrow-derived MSCs; experiment: MSC doubling time (cell number counted); assay type: cell-based
Procedure: The proliferation of MSCs was examined by measuring doubling time. MSCs were treated with EpEX (3 μg/mL) for 24 and 48 h. Cell number was counted and then doubling time was calculated. MSCs were treated with EpEX (3 μg/mL) for the indicated times. After treatment, protein expression of cell cycle regulators (cyclin D1, cyclin D2, cyclin D3, cyclin E1, CDK4 and CDK9) and pluripotency factors (Oct4, Sox2, c-Myc, and Lin28) was examined by Western blotting.
All experiments with primary human cells were conducted in accordance with relevant guidelines and regulations. Human primary bone marrow mesenchymal stem cells (BMMSCs) were purchased from LONZA and were cultured with Dulbecco's Modified Eagle Media-low glucose (DMEM-LG) medium containing 16.6% FBS, 1 mM L-glutamine (Invitrogen), 100 μg/ml Penicillin/Streptomycin (Gibco). All cells were cultured at 37° C. and 5% CO2. All experiments on primary cells were performed within 10 passages.
We used human bone marrow-derived MSCs to study the effects of EpEX and first investigated whether EpEX promotes cell proliferation of MSCs. […] Next, we examined the effect of EpEX on cell cycle progression by flow cytometry with propidium iodide (PI) staining. […] EpCAM has been reported to enhance cell cycle progression through upregulation of the proto-oncogene c-Myc and cyclin A/E (Munz et al., 2004). […]

[2] = target: T1, EGFR (Tyr845) (Homo sapiens, UniProt P00533); experiment: EGFR phosphorylation (antibody array, Western blotting); assay type: cell-based; conditions: MSCs treated with the substance (EpEX 3 μg/mL)
T1 construct: host or cells: human primary bone marrow mesenchymal stem cells (BMMSCs)
Procedure: Phospho-EGFR (Tyr845) was detected by Western blotting. […] After treatment, cell cycle progression was investigated by flow cytometry with PI staining. Fraction of cells in each phase (G1, S, G2/M) of the cell cycle was evaluated. Cells that expressed EGFR shRNA or shLuc were treated with EpEX for 18 h. After treatment, cell cycle progression was investigated by flow cytometry with PI staining. Fraction of cells in each phase (G1, S, G2/M) of the cell cycle was evaluated. […] The protein expression of cell cycle regulators (cyclin D1, cyclin D2, cyclin E1) and pluripotency factors (Oct4, Sox2, c-Myc, Lin28) was examined by Western blotting. MSCs expressing EGFR shRNA were stimulated by EpEX. After treatment, the protein expression of cell cycle regulators (cyclin D1, cyclin E1, CDK4 and CDK9) and pluripotency factors (Oct4, in Sox2, c-Myc, and Lin 28) was examined by Western blotting. […] After treatment, the gene expression of pluripotency factors (Oct4, Sox2, c-Myc, Lin28 and EpCAM) was examined by qPCR.
The phosphorylation of EGFR (Tyr845) and STAT3 (Tyr705) were examined by Western blotting with specific antibodies.
Western blotting was performed as previously described (Takahashi et al., 2003). Cells were lysed in lysis buffer (150 mM NaCl, 50 mM Tris-HCl (pH 7.4), 1% Nonidet P-40), containing a protease inhibitor mix (Roche Applied Science). Nuclear fractions and cytoplasmic fractions were separated by the Nuclear/Cytosol Fractionation Kit according to the manufacturer's instructions (BioVision Inc., Milpitas, CA, USA). Protein samples were separated by SDS-PAGE under denaturing conditions, and transferred to a PVDF membrane (Millipore). To probe for pluripotency markers, membranes were incubated with the indicated antibodies against Oct4 (1:1000, Abcam, Cambridge, UK), Nanog (1:1000, Genetex), Lin28 (1:1000, Genetex) or Sox2 (1:1000, Genetex). The CDK and cyclin antibodies were from the CDK and Cyclin Antibody Sampler Kits (Cell Signalling Technology, #9868 and #9869 respectively), including antibodies against cylin D1, D2, E1, and CDK4, CDK9 (1:1000). […]

[3] = system: TACE; experiment: TACE activity assay in MSC lysates; assay type: cell-based, human; conditions: EpEX-stimulated MSCs
Procedure: (§1) FIG. 9. EpEX induces the phosphorylation and activity of TACE and γ-secretase. MSCs were stimulated by EpEX for the indicated times, and the activity of TACE and γ-secretase were detected. MSCs were stimulated by EpEX (3 μg/mL) for the indicated times. Western blot analysis was performed to detect the phosphorylation of TACE and Presenilin 2.
(§2) ADAM17 activity was measured using the InnoZyme ADAM17 activity kit (Calbiochem). In brief, cell lysates were harvested and loaded into a TACE antibody-coated plate. After 1 h incubation, the lysate was removed and the plate was washed twice. Substrate was added into each well for 5 h at 37° C. After incubation, the fluorescence signal of the reaction product was detected at excitation of 324 nm and emission of 405 nm. For the detection of γ-secretase activity, cell lysates were extracted and 500 μg protein was used. γ-secretase activity was detected by γ-secretase substrate (35 μM).

[4] = system: γ-secretase; experiment: γ-secretase activity assay in MSC lysates; assay type: cell-based, human; conditions: EpEX-stimulated MSCs
Procedure: as §1, §2

[5] = system: EpICD binding to the Oct4 promoter; experiment: ChIP of EpICD binding to the Oct4 promoter; assay type: cell-based, human; conditions: EpEX 3 μg/mL, ChIP-qPCR
Procedure: FIG. 12. EpEX increases the binding of EpICD to the promoter of Oct4 by inhibiting let7. (A) MSCs were transfected with let7 inhibitor or mimetics then treated with EpEX (3 μg/mL). Binding of EpICD to the Oct4 promoter was examined by chromatin immunoprecipitation (ChIP). EpICD was pulled down by a specific anti-EpICD antibody. The cross-linked DNA was isolated and then probed by qPCR with specific primers for the Oct4 promoter. (B) MSCs were transfected with let7 inhibitor or mimetics then treated with EpEX (3 μg/mL). Binding of EpICD-HMGA2 was examined by sequential ChIP. EpICD was pulled down by a specific anti-EpICD antibody, followed by pull-down with a HMGA2 antibody. To detect bound Oct4 promoter, the cross-linked DNA was isolated and then amplified by qPCR with specific primers.
We performed chromatin immunoprecipitation (ChIP) with the Pierce™ Magnetic ChIP Kit (Thermo Fisher Scientific), to according the manufacturer's instructions. In brief, the protein-DNA complexes were cross-linked with 1% formaldehyde and quenched by adding glycine to a final concentration of 200 mM. […]
The immunoprecipitated DNA was recovered by a PCR purification kit (Thermo Fisher Scientific), and the purified DNA was subjected to real time quantitative PCR for further analysis. Immunoprecipitation/input was calculated for each gene and each gene was further normalized to the level of mouse β-actin promoter. […]

B1: EpEX: extracellular domain of human EpCAM, 265 amino acids in length (SEQ ID NO: 2) (protein, listed as Homo sapiens)
chain: MAPPQVLAFGLLLAAATATFAAAQEECVCENYKLAVNCFVNNNRQCQCTSVGAQNTVICSKLAAKCLVMKAEMNGSKLGRRAKPEGALQNNDGLYDPDCDESGLFKAKQCNGTSMCWCVNTAGVRRTDKDTEITCSERVRTYWIIIELKHKAREKPYDSKSLRTALQKEITTRYQLDPKFITSILYENNVITIDLVQNSSQKTQNDVDIADVAYYFEKDVKGESLFHSKKMDLTVNGEQLDLDPGQTLIYYVDEKAPEFSMQGLK
MSC doubling time ([1]; P3, EpEX 3 μg/mL (0 μg/mL: 17.6 ± 0.3 h)): 16.1 ± 0.1 h | MSC doubling time ([1]; P9, EpEX 3 μg/mL (0 μg/mL: 38.2 ± 1.7 h)): 22.5 h and 22.5 ± 0.4 h | phosphorylation of EGFR at Tyr845 [2]: induced EGFR phosphorylation at Tyr845 in a time-dependent manner; also recorded: can induce | activation of TACE [3]: induced | activation of γ-secretase [4]: induced | binding of EpICD to the promoter of Oct4 [5]: increases
